Experimental data published in the Human Domainome abundance scans (Beltran et al. 2025).

B1: Double-stranded RNA-specific adenosine deaminase, residues 296 to 358; numbered along this chain, P55265 (parent)
chain: MAEIKEKICDYLFNVSDSSALNLAKNIGLTKARDINAVLIDMERQGDVYRQGTTPPIWHLTDK

Variants of: B1
Assay: abundance fitness (aPCA) (normalised: wild type 0, dead -1); higher = more abundant; growth selection in yeast, the domain comes from the species named
Settings: Homo sapiens

Abundance fitness of substitutions, site by site:
K5: P -0.486, Q -0.28, R -0.118, T -0.601, V -0.652, W -0.465, Y -0.79
E6: A -0.148, C -0.654, D -0.517, F -0.839, G -0.246, H -0.557, I -0.886, K 0.056, L -0.57, M -0.25, N -0.428, P -0.831, Q -0.03, R -0.338, S -0.39, V -0.589, W -0.793, Y -0.832
K7: A -0.348, C -1.01, D -0.533, F -0.543, G -0.775, I -0.779, L -0.402, M -0.055, N -0.534, P -0.906, Q -0.938, R -0.266, S -0.467, V -0.641, W -0.471, Y -0.796
I8: A -0.564, D 0.302, E -0.374, F -0.506, G -0.471, H -0.766, K -0.568, L -0.903, N -0.543, P -0.455, Q -0.137, R -0.374, S -0.304, T -0.713, V -0.649, W -1.3
C9: A -0.143, D -0.678, E 0.002, F 0.086, G -0.389, H -0.125, I 0.338, K 0.278, L 0.168, M 0.042, N 0.077, Q -0.105, R 0.233, T 0.119, V 0.217, W -0.018, Y 0.09
D10: A -0.021, E 0, F -0.653, G -0.514, H 0.011, I -0.502, L -0.568, M -0.44, N 0.085, Q 0.051, R 0.051, S 0.05, T -0.157, W -0.297, Y -0.453
Y11: A -0.126, C -0.22, D -0.488, E -0.035, F -0.056, G -0.391, I -0.214, K -0.256, M -0.429, N -0.407, P -0.175, Q -0.204, R -0.376, S -0.255, T -0.341, V -0.359
L12: A -0.481, C -1.02, D -0.706, E -0.115, F -0.727, G -0.441, H -0.46, I -0.69, K -0.95, M -0.82, Q -0.512, R -0.367, S -0.295, T -0.99, V -0.669, W -1.01, Y -0.044
F13: A 0.543, C 0.19, E 0.383, G 0.335, H 0.1, I 0.142, K 0.538, M 0.339, N 0.366, P -0.216, Q 0.541, R 0.577, S 0.403, T 0.227, V -0.061, W -0.051, Y 0.079
N14: A -0.014, C -0.215, D -0.312, E 0.102, F -0.385, G -0.236, H 0.085, K 0.434, L -0.121, M -0.189, P -0.658, Q 0.008, R 0.285, S 0.017, T 0.086, V -0.31, W -0.426, Y 0.045
V15: A -0.147, C -0.365, D -0.463, E -0.025, F 0.045, G -0.377, H 0.489, I -0.2, K -0.089, M -0.203
